Drawing on publication PMC10527606, this text covers Kd for five substances.

pKd: −log10 of the molar value.

As usually defined, the pKd is the negative decadic logarithm of the Kd, by convention in mol/L. The low end stands for a high Kd, the high end for a low Kd.

The target in experiment [1] is humanized 5c8 (hu5c8) (human (humanized antibody)). As to the kind of experiment: SPR. In general terms: SPR reads the build-up and loss of mass on a sensor chip optically.
Experiment [2] addresses TNX-1500 (human). As to the kind of experiment: SPR.

As for “FcγRIIIaF (from UniProt P08637 17-208) (receptor)”, in experiment [1], the pKd was 5.77. Take “FcγRIIIaV (from UniProt P08637 17-208) (receptor)”: the pKd in experiment [1] is 6.48. As for “FcγRIIaH (from UniProt P12318 34-217) (receptor)”, the pKd was 5.15 in experiment [2] and 6.29 in experiment [1]. The substance “FcγRIIbF (from UniProt P31994 43-217) (receptor)” gave a negative logarithm of the Kd (pKd) in experiment [1] of 6.01. “FcγRIa (from UniProt P12314 16-292) (receptor)”: the pKd is 8.06 in experiment [2] and 10.48 in experiment [1].
